In test [1] the target is T1, recombinant human PD-1 Fc chimera (human, UniProt Q15116 25-167).
T1 construct: Bought (R&D 1086-PD); Labelled with europium cryptate in the PD-L2 HTRF assay; also called human PD-1 (R&D Systems cat no. 1086-PD); human PD-1-huFc; not shown: human Fc of the bought chimera
The test is described as follows: BLI (Octet), PD-1-huFc on biosensor, 1:1 fit. On the procedure:
Binding kinetics of clones to human PD-1-huFc were measured in real-time bio-layer interferometer based biosensor Octet (ForteBio). Recombinant human PD-1-huFc was either immobilized by standard amine coupling to amine reactive biosensors in 10 mM sodium acetate at pH 5.0 or capture by protein G biosensors (ForteBio). All the binding studies were performed in HBS-ET Octet kinetics buffer. Biosensors were always washed in Octet kinetics buffer in between different steps. A seven point, two-fold dilution series of each Humabody® VH was made with a top concentration in range 100-30 nM. The contact time for each of the association steps was varied between 180-300 seconds and the dissociation step was varied between 400-600 seconds. Kinetic association (kₐ) and dissociation (kd) rate constants were determined by processing and fitting the data to a 1:1 binding model using ForteBio Analysis software.
In general terms: BLI is a label-free optical method that tracks binding on a fibre tip over time.

Test [2] addresses T2, human PD-1 expressed on cells (CHO human PD-1 cells) (human, UniProt Q15116 21-288).
T2 construct: CHO cells in the FMAT assays; Jurkat reporter cells in the reporter assay; primary CD4+ T cells in the mixed lymphocyte reaction; also called CHO TREX human PD1 cell line; CHO PD-1
The test is described as follows: FMAT epitope competition on CHO human PD-1 cells; competitor 2 nM 2.1-Strep tagged protein. On the procedure: (§1) For the epitope competition assay reagents were prepared in FMAT assay buffer. […] Plates were incubated for a minimum of 1.5 hours at room temperature then fluorescence measured in the FL2 (502 nm-537 nm) and FL5 (677-800 nm) channels on the Mirrorball plate reader (TTP) following excitation at 488 nm and 640 nm. Data was expressed as a % of the total binding control (i.e. % control) after subtraction of the background signal determined from the non-specific binding control wells.

Test [3] deals with T2, human PD-1 expressed on cells (CHO …). The test is described as follows: FMAT epitope competition on CHO human PD-1 cells; competitor 2 nM 1.1-Strep tagged protein. On the procedure: as §1
The target in test [4] is T1, recombinant human PD-1 Fc chimera. The test is described as follows: SPR (Biacore T200), PD-1-huFc amine-coupled to CM5, single cycle kinetics, 1:1 fit. On the procedure:
Binding kinetics of certain VH single domain antibodies binding to human PD-1-huFc were measured by surface plasmon resonance (SPR) technology using Biacore T200 instrument (GE Healthcare). Recombinant human PD-1-huFc was immobilized by standard amine coupling to CM5 sensorschip (GE Healthcare) using 0.01 mg/ml solution of antigen in 10 mM sodium acetate at pH 5.5. For the reference flow cell, a blank immobilisation was carried out. Single cycle kinetics assays were used to study the interaction, a five point, three-fold dilution series of each Humabody® was made with a top concentration of 30 nM. The binding kinetics were followed by flowing the Humabody® over the chip surface in HBS EP+ buffer at a flow rate of 30 μl/min. The contact time for each of the association steps was 180 seconds and the dissociation step was varied between 1200-3600 seconds. The data was fitted to a 1:1 binding model after double reference subtraction using the Biacore T200 Evaluation software.
On the technique in general: In SPR one partner is held on a chip, and binding of the other changes the refractive index at the surface.

T1 sequence (Q15116 25-167, change not shown): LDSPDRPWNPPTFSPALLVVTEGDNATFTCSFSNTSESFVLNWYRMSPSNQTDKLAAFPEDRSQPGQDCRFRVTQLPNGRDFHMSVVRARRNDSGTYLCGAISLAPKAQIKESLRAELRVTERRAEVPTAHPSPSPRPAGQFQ
T2 sequence (Q15116 21-288): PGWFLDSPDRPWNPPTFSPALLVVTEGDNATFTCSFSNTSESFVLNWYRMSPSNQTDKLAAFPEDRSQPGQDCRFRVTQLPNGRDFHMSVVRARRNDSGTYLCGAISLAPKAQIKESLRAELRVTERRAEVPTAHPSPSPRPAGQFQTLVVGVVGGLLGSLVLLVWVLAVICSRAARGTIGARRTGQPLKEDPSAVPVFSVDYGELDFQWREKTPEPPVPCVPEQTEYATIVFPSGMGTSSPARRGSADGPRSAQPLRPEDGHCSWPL

B1: Humabody VH 2.13 (VHH)
VHH: EVQLVESGGGVVRPGGSLRLSCAASGFTFDDYAMSWVRQAPGKGLEWVSGITWNRGSTGYADSVKGRFTISRDNAKNSLYLQMNSLRAEDTALYYCVRDKYSYAWSYDDFDIWGQGTMVTVSS
notes: human VH single domain antibody
Consider B1, for which, in test [1], the dissociation constant (Kd) came to 25 nM, the koff worked out at 0.035 s⁻¹ and the on-rate constant (kon) is 1.3e+06 M⁻¹ s⁻¹.

B2: Humabody VH 2.52 (VHH)
VHH: EVQLVESGGGVVRPGGSLRLSCAASGFTFDDYAMSWVRQAPGKGLEWVSGITWNGGSTGYADSVKDRFTISRDNAKNSLYLQMNSLRAEDTALYYCVRDKYSYAWSYDVFDIWGQGTMVTVSS
notes: as for B1
For the molecule B2, in test [1], the equilibrium dissociation constant (Kd) came to 3.3 nM, the off-rate constant (koff) worked out at 0.0022 s⁻¹ and the kon turned out to be 670000 M⁻¹ s⁻¹. Further, the concentration for half-maximal inhibition (IC50) in test [2] is 21 nM. In test [3], this molecule registered an IC50 of 6.5 nM.

B3: Humabody VH 2.39 (VHH)
VHH: EVQLVESGGGVVRPGGSLRLSCAASGFTFDDYAESWVRQAPGKGLEWVSGITWNGGSTGYADSVKDRFTISRDNAKNSLYLQMNSLRAEDTALYYCVRDKYSYAWSYDGFDIWGQGTMVTVSS
notes: as for B1
With B3, in test [1], the Kd was determined as 1.6 nM, the koff turned out to be 0.00059 s⁻¹ and the kon is 370000 M⁻¹ s⁻¹.

B4: Humabody VH 2.53 (VHH)
VHH: EVQLVESGGGVVRPGGSLRLSCAASGFTFDDYAMSWVRQAPGKGLEWVSGITWNGGSTGYADSVKDRFTISRDNAKNSLYLQMNSLRAEDTALYYCVRDKYSYAWSYDDFDIWGQGTMVTVSS
notes: as for B1
Regarding B4, in test [1], the dissociation constant Kd stood at 16 nM, the dissociation rate constant (koff) turned out to be 0.017 s⁻¹ and the kon stood at 1e+06 M⁻¹ s⁻¹. The molecule further came in with an IC50 in test [2] of 14 nM. Moreover, the IC50 in test [3] was 7 nM.

B5: Humabody VH 2.37 (VHH)
VHH: EVQLVESGGGVVRPGGSLRLSCAASGFTFDDYALSWVRQAPGKGLEWVSGITWNGGSTGYADSVKDRFTISRDNAKNSLYLQMNSLRAEDTALYYCVRDKYSYAWSYDGFDIWGQGTMVTVSS
notes: as for B1
Take B5: in test [1], the equilibrium dissociation constant (Kd) came out at 3.4 nM, the dissociation rate constant (koff) stood at 0.0015 s⁻¹ and the kon is 450000 M⁻¹ s⁻¹.

B6: Humabody VH 2.27 (VHH)
VHH: EVQLVESGGGVVRPGGSLRLSCAASGFTFDDYAMSWVRQAPGKGLEWVSGITWNAGSTGYADSVKDRFTISRDNAKNSLYLQMNSLRAEDTALYYCVRDKYSYAWSYDDFDIWGQGTMVTVSS
notes: as for B1
With B6, the figures for the half-maximal inhibitory concentration (IC50) in test [2] and in test [3] were 13 nM and 9 nM, respectively.

B7: Humabody VH 1.26 (VHH)
VHH: EVQLVESGGGLVQPGRSLRLSCAASGFTFDDYAMHWVRQAPGKDLEWVSGISWNGGSMGYADSVKGRFTISRDNAKNSLYLQMNSLRAEDTALYYCVREKGPGLTGSTADYYGLDAWGQGTMVTVSS
notes: as for B1
In turn, B7 came in with an IC50 in test [3] of 8 nM. In addition, in test [4], the dissociation constant Kd is 7.94 nM, the dissociation rate constant (koff) stood at 0.00211 s⁻¹ and the kon came to 265000 M⁻¹ s⁻¹.

B8: Humabody VH 1.34 (VHH)
VHH: EVQLVESGGGLVQPGRSLRLSCAASGFTFDDYAMHWVRQAPGKDLEWVSGISWNGGSQGYADSVKGRFTISRDNAKNSLYLQMNSLRAEDTALYYCVREKGPGLTGSTADYYGLDAWGQGTMVTVSS
notes: as for B1
For the molecule B8, in test [1], the equilibrium dissociation constant (Kd) came to 3.6 nM, the koff was 0.0007 s⁻¹ and the kon was determined as 190000 M⁻¹ s⁻¹. The molecule also returned an IC50 in test [3] of 6.5 nM.

B9: Humabody VH 1.50 (VHH)
VHH: EVQLVESGGGLVQPGRSLRLSCAASGFTFDDYAFHWVRQAPGKDLEWVSGISWNAGSQGYADSVKGRFTISRDNAKNSLYLQMNSLRAEDTALYYCVREKGPGLTGSTADYYGLDAWGQGTMVTVSS
notes: as for B1
B9: in test [4], the Kd is 14.3 nM, the dissociation rate constant (koff) came to 0.00229 s⁻¹ and the kon was found to be 160000 M⁻¹ s⁻¹.

B10: Humabody VH 1.44 (VHH)
VHH: EVQLVESGGGLVQPGRSLRLSCAASGFTFDDYALHWVRQAPGKDLEWVSGISWNSGSYGYADSVKGRFTISRDNAKNSLYLQMNSLRAEDTALYYCVREKGPGLTGSTADYYGLDAWGQGTMVTVSS
notes: as for B1
As for B10, in test [4], the Kd was determined as 9.1 nM, the koff was found to be 0.00204 s⁻¹ and the on-rate (kon) was determined as 224000 M⁻¹ s⁻¹.

B11: Humabody VH 1.33 (VHH)
VHH: EVQLVESGGGLVQPGRSLRLSCAASGFTFDDYAMHWVRQAPGKDLEWVSGISWNGGSYGYADSVKGRFTISRDNAKNSLYLQMNSLRAEDTALYYCVREKGPGLTGSTADYYGLDAWGQGTMVTVSS
notes: as for B1
On to B11, for which, in test [1], the equilibrium dissociation constant (Kd) turned out to be 2 nM, the off-rate constant (koff) was found to be 0.00074 s⁻¹ and the kon was 370000 M⁻¹ s⁻¹. In test [3], this molecule gave a half-inhibitory concentration (IC50) of 2.5 nM.

B12: Humabody VH 1.47 (VHH)
VHH: EVQLVESGGGLVQPGRSLRLSCAASGFTFDDYAFHWVRQAPGKDLEWVSGISWNSGSYGYADSVKGRFTISRDNAKNSLYLQMNSLRAEDTALYYCVREKGPGLTGSTADYYGLDAWGQGTMVTVSS
notes: as for B1
Take B12: in test [4], the Kd came out at 10.2 nM, the off-rate (koff) amounted to 0.00254 s⁻¹ and the kon turned out to be 248000 M⁻¹ s⁻¹.

B13: Humabody VH 1.37 (VHH)
VHH: EVQLVESGGGLVQPGRSLRLSCAASGFTFDDYAFHWVRQAPGKDLEWVSGISWNGGSMGYADSVKGRFTISRDNAKNSLYLQMNSLRAEDTALYYCVREKGPGLTGSTADYYGLDAWGQGTMVTVSS
notes: as for B1
As to B13, in test [1], the equilibrium dissociation constant (Kd) was determined as 5.5 nM, the koff is 0.0013 s⁻¹ and the kon turned out to be 240000 M⁻¹ s⁻¹. For the same molecule, in test [3], the IC50 was found to be 7.5 nM.

B14: Humabody VH 1.48 (VHH)
VHH: EVQLVESGGGLVQPGRSLRLSCAASGFTFDDYALHWVRQAPGKDLEWVSGISWNSGSQGYADSVKGRFTISRDNAKNSLYLQMNSLRAEDTALYYCVREKGPGLTGSTADYYGLDAWGQGTMVTVSS
notes: as for B1
Regarding B14, in test [4], the dissociation constant (Kd) came to 16.2 nM, the koff is 0.00291 s⁻¹ and the kon was found to be 180000 M⁻¹ s⁻¹.

B15: Humabody VH 1.40 (VHH)
VHH: EVQLVESGGGLVQPGRSLRLSCAASGFTFDDYALHWVRQAPGKDLEWVSGISWNGGSQGYADSVKGRFTISRDNAKNSLYLQMNSLRAEDTALYYCVREKGPGLTGSTADYYGLDAWGQGTMVTVSS
notes: as for B1
In the case of B15, in test [4], the Kd came to 5.98 nM, the off-rate constant (koff) was determined as 0.00145 s⁻¹ and the association rate constant (kon) amounted to 243000 M⁻¹ s⁻¹.

The Kd is the concentration at which binding is half-saturated. As usually defined, the koff is a measure of how fast the partners let go of each other. The kon is the rate constant with which the complex forms. A word on the IC50: it is the point on the concentration scale where inhibition reaches its midpoint. Low values mean higher potency, high ones lower potency.

(Values after US20200239570A1 (CRESCENDO BIOLOGICS, published 2020).)
